According to article PMC11661604:

Target: native Semliki Forest virus (SFV) virion (Semliki Forest virus)
Experiment: SPR; Biacore 8K; purified SFV virions amine-coupled on a CM5 chip (more than 2,500 RU); Fc fusions flowed in gradient concentrations at 30 μL/min in PBS with 0.05% Tween-20, pH 7.4, 25°C; 1:1 binding model

LA3-4-Fc (from UniProt P98155-1 110-191) (Fc fusion)
Kd: 1.48 µM

LA3-5-Fc (from UniProt P98155-1 110-237) (Fc fusion)
Kd: 0.438 µM

LA2-5-Fc (from UniProt P98155-1 69-237) (Fc fusion)
Kd: 0.269 µM

LA1-3-Fc (from UniProt P98155-1 31-152) (Fc fusion)
increase in KD compared to LA2-3: 0.1 µM

LA3-Fc (from UniProt P98155-1 110-152) (Fc fusion)
Kd: 0.903 µM

VLDLRLBD-Fc (ligand-binding domain of human VLDLR, LA1-8, Fc fusion) (from UniProt P98155-1 31-355)
Kd: 0.252 µM

LA2-3-Fc (from UniProt P98155-1 69-152) (Fc fusion)
Kd: 0.445 µM
